Experimental data reported in article PMC4254511.

Target: ICP8 (Infected Cell Polypeptide 8, HSV-1 SSB) (herpes simplex virus-1, UniProt P04296 1-1196)
Test: thermal shift assay

Chain of ICP8 (Infected Cell Polypeptide 8, HSV-1 SSB) (P04296 whole entry): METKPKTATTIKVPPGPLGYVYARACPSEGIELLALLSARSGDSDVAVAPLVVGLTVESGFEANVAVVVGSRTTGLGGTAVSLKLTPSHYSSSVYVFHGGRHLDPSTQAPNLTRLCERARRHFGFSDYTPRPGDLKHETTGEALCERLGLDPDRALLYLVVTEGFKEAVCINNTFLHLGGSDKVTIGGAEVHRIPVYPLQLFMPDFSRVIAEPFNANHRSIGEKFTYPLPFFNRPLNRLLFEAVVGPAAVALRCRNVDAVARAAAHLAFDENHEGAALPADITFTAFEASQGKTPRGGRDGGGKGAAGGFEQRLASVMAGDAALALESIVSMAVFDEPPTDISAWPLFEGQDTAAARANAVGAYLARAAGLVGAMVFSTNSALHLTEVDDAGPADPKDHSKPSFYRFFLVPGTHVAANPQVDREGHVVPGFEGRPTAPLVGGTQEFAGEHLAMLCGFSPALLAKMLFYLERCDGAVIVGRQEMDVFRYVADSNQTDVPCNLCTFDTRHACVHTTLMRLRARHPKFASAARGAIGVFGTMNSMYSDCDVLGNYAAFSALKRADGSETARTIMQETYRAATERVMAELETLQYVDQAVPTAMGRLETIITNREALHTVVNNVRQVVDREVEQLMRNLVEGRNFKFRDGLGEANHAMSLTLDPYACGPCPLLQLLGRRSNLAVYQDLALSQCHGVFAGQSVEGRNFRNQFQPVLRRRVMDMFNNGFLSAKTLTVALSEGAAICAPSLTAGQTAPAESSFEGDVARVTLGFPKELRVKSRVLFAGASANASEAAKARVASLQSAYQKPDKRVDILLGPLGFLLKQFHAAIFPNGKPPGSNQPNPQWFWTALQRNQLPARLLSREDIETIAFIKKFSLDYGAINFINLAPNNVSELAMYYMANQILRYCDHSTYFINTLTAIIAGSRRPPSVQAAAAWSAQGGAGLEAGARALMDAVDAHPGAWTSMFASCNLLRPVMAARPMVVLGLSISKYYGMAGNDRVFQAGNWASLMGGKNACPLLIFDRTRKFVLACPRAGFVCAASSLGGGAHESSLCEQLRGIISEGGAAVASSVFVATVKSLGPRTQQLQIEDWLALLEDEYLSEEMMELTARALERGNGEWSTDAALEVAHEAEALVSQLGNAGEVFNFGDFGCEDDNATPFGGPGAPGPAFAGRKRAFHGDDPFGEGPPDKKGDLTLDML

TTTTTTTTTTTTTTTTTTTT (ssDNA) [(dT)20]
Kd: < 1000 nM
